Results on 7 molecules are retold here after patent US20170247476A1 (Amgen, published 2017).

In the assay the target is HER2 (human, UniProt P04626 23-1255). The experiment in a line: cell-based or functional assay.

B1: CD3ε(1-27)-MMP-2csV3-aCD3-aHER2-Xbody (bispecific antibody)
chain 1: not shown
chain 2: QDGNEEMGGITQTPYKVSISGTTVILTGGGGSGGGGSGGGGSPLGLAGEVQLVESGGGLVQPGGSLKLSCAASGFTFNSYAMNWVRQAPGKGLEWVARIRSKYNNYATYYADSVKGRFTISRDDSKNTAYLQMNNLKTEDTAVYYCVRHGNFGNSYVSWWAYWGQGTLVTVSSGGGGSGGGGSELVMTQTPSSLSASLGDRVTISCRASQDISNYLNWYQQKPDGTVKLLIYYTSRLHSGVPSRFSGSGSGTDYSLTISNLEQEDIATYFCQQGNTLPLTFGAGTKLEIKASTKGPSVFPLAPCSRSTSESTAALGCLVKDYFPEPVTVSWNSGALTSGVHTFPAVLQSSGLYSLSSVVTVPSSNFGTQTYTCNVDHKPSNTKVDKTVGGGGSAAAEPKSSDKTHTCPPCPAPEAAGGPSVFLFPPKPKDTLMISRTPEVTCVVVDVSHEDPEVKFNWYVDGVEVHNAKTKPREEQYNSTYRVVSVLTVLHQDWLNGKEYKCKVSNKALPAPIEKTISKAKGQPREPQVYTLPPSREEMTKNQVSLTCLVKGFYPSDIAVEWESNGQPENNYDTTPPVLDSDGSFFLYSDLTVDKSRWQQGNVFSCSVMHEALHNHYTQKSLSLSPGK
As to B1, the “EC50 Cytolysis (ng/mL), -MMP2; TDCC of SKOV-3 cells with pan T cells” value (“EC50 Cytolysis (ng/mL), -MMP2; TDCC” below) is 5.49 ng/mL.

B2: CD3ε(1-27)-MMP-2csV2-aCD3-aHER2-Xbody (bispecific antibody)
chain 1: not shown
chain 2: QDGNEEMGGITQTPYKVSISGTTVILTGGGGSGGGGSGGGGSGGPLGMLSQSEVQLVESGGGLVQPGGSLKLSCAASGFTFNSYAMNWVRQAPGKGLEWVARIRSKYNNYATYYADSVKGRFTISRDDSKNTAYLQMNNLKTEDTAVYYCVRHGNFGNSYVSWWAYWGQGTLVTVSSGGGGSGGGGSELVMTQTPSSLSASLGDRVTISCRASQDISNYLNWYQQKPDGTVKLLIYYTSRLHSGVPSRFSGSGSGTDYSLTISNLEQEDIATYFCQQGNTLPLTFGAGTKLEIKASTKGPSVFPLAPCSRSTSESTAALGCLVKDYFPEPVTVSWNSGALTSGVHTFPAVLQSSGLYSLSSVVTVPSSNFGTQTYTCNVDHKPSNTKVDKTVGGGGSAAAEPKSSDKTHTCPPCPAPEAAGGPSVFLFPPKPKDTLMISRTPEVTCVVVDVSHEDPEVKFNWYVDGVEVHNAKTKPREEQYNSTYRVVSVLTVLHQDWLNGKEYKCKVSNKALPAPIEKTISKAKGQPREPQVYTLPPSREEMTKNQVSLTCLVKGFYPSDIAVEWESNGQPENNYDTTPPVLDSDGSFFLYSDLTVDKSRWQQGNVFSCSVMHEALHNHYTQKSLSLSPGK
Turning to B2, the “EC50 Cytolysis (ng/mL), -MMP2; TDCC” value was determined as 2.62 ng/mL.

B3: aCD3-aHER2-Xbody (bispecific antibody)
chain 1: not shown
chain 2: EVQLVESGGGLVQPGGSLKLSCAASGFTFNSYAMNWVRQAPGKGLEWVARIRSKYNNYATYYADSVKGRFTISRDDSKNTAYLQMNNLKTEDTAVYYCVRHGNFGNSYVSWWAYWGQGTLVTVSSGGGGSGGGGSELVMTQTPSSLSASLGDRVTISCRASQDISNYLNWYQQKPDGTVKLLIYYTSRLHSGVPSRFSGSGSGTDYSLTISNLEQEDIATYFCQQGNTLPLTFGAGTKLEIKASTKGPSVFPLAPCSRSTSESTAALGCLVKDYFPEPVTVSWNSGALTSGVHTFPAVLQSSGLYSLSSVVTVPSSNFGTQTYTCNVDHKPSNTKVDKTVGGGGSAAAEPKSSDKTHTCPPCPAPEAAGGPSVFLFPPKPKDTLMISRTPEVTCVVVDVSHEDPEVKFNWYVDGVEVHNAKTKPREEQYNSTYRVVSVLTVLHQDWLNGKEYKCKVSNKALPAPIEKTISKAKGQPREPQVYTLPPSREEMTKNQVSLTCLVKGFYPSDIAVEWESNGQPENNYDTTPPVLDSDGSFFLYSDLTVDKSRWQQGNVFSCSVMHEALHNHYTQKSLSLSPGK
B3: the “EC50 Cytolysis (ng/mL), -MMP2; TDCC” value stood at 0.128 ng/mL.

B4: CD3ε(1-27)-aCD3-aHER2-Xbody (bispecific antibody)
chain 1: not shown
chain 2: QDGNEEMGGITQTPYKVSISGTTVILTGGGGSGGGGSGGGGSEVQLVESGGGLVQPGGSLKLSCAASGFTFNSYAMNWVRQAPGKGLEWVARIRSKYNNYATYYADSVKGRFTISRDDSKNTAYLQMNNLKTEDTAVYYCVRHGNFGNSYVSWWAYWGQGTLVTVSSGGGGSGGGGSELVMTQTPSSLSASLGDRVTISCRASQDISNYLNWYQQKPDGTVKLLIYYTSRLHSGVPSRFSGSGSGTDYSLTISNLEQEDIATYFCQQGNTLPLTFGAGTKLEIKASTKGPSVFPLAPCSRSTSESTAALGCLVKDYFPEPVTVSWNSGALTSGVHTFPAVLQSSGLYSLSSVVTVPSSNFGTQTYTCNVDHKPSNTKVDKTVGGGGSAAAEPKSSDKTHTCPPCPAPEAAGGPSVFLFPPKPKDTLMISRTPEVTCVVVDVSHEDPEVKFNWYVDGVEVHNAKTKPREEQYNSTYRVVSVLTVLHQDWLNGKEYKCKVSNKALPAPIEKTISKAKGQPREPQVYTLPPSREEMTKNQVSLTCLVKGFYPSDIAVEWESNGQPENNYDTTPPVLDSDGSFFLYSDLTVDKSRWQQGNVFSCSVMHEALHNHYTQKSLSLSPGK
With B4, the “EC50 Cytolysis (ng/mL), +MMP2; TDCC of SKOV-3 cells with pan T cells” value (“EC50 Cytolysis (ng/mL), +MMP2; TDCC” for short) was found to be 6.73 ng/mL and the “EC50 Cytolysis (ng/mL), -MMP2; TDCC” value was found to be 6.12 ng/mL.

B5: aCD3-aHER2-mxb (bispecific antibody)
chain 1: EVQLLEQSGAELVRPGALVKLSCKASGFKIKDYFVNWVKQRPEQGLEWIGWIDPENDNSLYGPNFQDKASITADTSSNTGYLQLSGLTSEDTAVYYCALYYGSRGDAMDYWGQGTTVTVSSGGGGSGGGGSGGGGSELVMTQTPSSLSASLGDRVTISCRASQDISNYLNWYQQKPDGTVKLLIYYTSRLHSGVPSRFSGSGSGTDYSLTISNLEQEDIATYFCQQGNTLPLTFGAGTKLEIKAAAEPKSSDKTHTCPPCPAPEAAGGPSVFLFPPKPKDTLMISRTPEVTCVVVDVSHEDPEVKFNWYVDGVEVHNAKTKPREEQYNSTYRVVSVLTVLHQDWLNGKEYKCKVSNKALPAPIEKTISKAKGQPREPQVYTLPPSRKEMTKNQVSLTCLVKGFYPSDIAVEWESNGQPENNYKTTPPVLKSDGSFFLYSKLTVDKSRWQQGNVFSCSVMHEALHNHYTQKSLSLSPGKAAAHHHHHH
chain 2: not shown
As to B5, the “EC50 Cytolysis (ng/mL), -MMP2; TDCC” value is 0.184 ng/mL.

B6: CD3ε(1-27)-MMP-2csV3-aCD3-aHER2-Xbody, digested with MMP-2 (bispecific antibody)
chain 1: not shown
chain 2: LAGEVQLVESGGGLVQPGGSLKLSCAASGFTFNSYAMNWVRQAPGKGLEWVARIRSKYNNYATYYADSVKGRFTISRDDSKNTAYLQMNNLKTEDTAVYYCVRHGNFGNSYVSWWAYWGQGTLVTVSSGGGGSGGGGSELVMTQTPSSLSASLGDRVTISCRASQDISNYLNWYQQKPDGTVKLLIYYTSRLHSGVPSRFSGSGSGTDYSLTISNLEQEDIATYFCQQGNTLPLTFGAGTKLEIKASTKGPSVFPLAPCSRSTSESTAALGCLVKDYFPEPVTVSWNSGALTSGVHTFPAVLQSSGLYSLSSVVTVPSSNFGTQTYTCNVDHKPSNTKVDKTVGGGGSAAAEPKSSDKTHTCPPCPAPEAAGGPSVFLFPPKPKDTLMISRTPEVTCVVVDVSHEDPEVKFNWYVDGVEVHNAKTKPREEQYNSTYRVVSVLTVLHQDWLNGKEYKCKVSNKALPAPIEKTISKAKGQPREPQVYTLPPSREEMTKNQVSLTCLVKGFYPSDIAVEWESNGQPENNYDTTPPVLDSDGSFFLYSDLTVDKSRWQQGNVFSCSVMHEALHNHYTQKSLSLSPGK
In the case of B6, the “EC50 Cytolysis (ng/mL), +MMP2; TDCC” value came out at 0.205 ng/mL.

B7: CD3ε(1-27)-MMP-2csV2-aCD3-aHER2-Xbody, digested with MMP-2 (bispecific antibody)
chain 1: not shown
chain 2: MLSQSEVQLVESGGGLVQPGGSLKLSCAASGFTFNSYAMNWVRQAPGKGLEWVARIRSKYNNYATYYADSVKGRFTISRDDSKNTAYLQMNNLKTEDTAVYYCVRHGNFGNSYVSWWAYWGQGTLVTVSSGGGGSGGGGSELVMTQTPSSLSASLGDRVTISCRASQDISNYLNWYQQKPDGTVKLLIYYTSRLHSGVPSRFSGSGSGTDYSLTISNLEQEDIATYFCQQGNTLPLTFGAGTKLEIKASTKGPSVFPLAPCSRSTSESTAALGCLVKDYFPEPVTVSWNSGALTSGVHTFPAVLQSSGLYSLSSVVTVPSSNFGTQTYTCNVDHKPSNTKVDKTVGGGGSAAAEPKSSDKTHTCPPCPAPEAAGGPSVFLFPPKPKDTLMISRTPEVTCVVVDVSHEDPEVKFNWYVDGVEVHNAKTKPREEQYNSTYRVVSVLTVLHQDWLNGKEYKCKVSNKALPAPIEKTISKAKGQPREPQVYTLPPSREEMTKNQVSLTCLVKGFYPSDIAVEWESNGQPENNYDTTPPVLDSDGSFFLYSDLTVDKSRWQQGNVFSCSVMHEALHNHYTQKSLSLSPGK
Regarding B7, the “EC50 Cytolysis (ng/mL), +MMP2; TDCC” value came to 0.22 ng/mL.
